B1: Disease resistance protein RPS4 (Arabidopsis thaliana (Mouse-ear cress)), Q9XGM3 (parent)
chain: METSSISTVEDKPPQHQVFINFRGADLRRRFVSHLVTALKLNNINVFIDDYEDRGQPLDVLLKRIEESKIVLAIFSGNYTESVWCVRELEKIKDCTDEGTLVAIPIFYKLEPSTVRDLKGKFGDRFRSMAKGDERKKKWKEAFNLIPNIMGIIIDKKSVESEKVNEIVKAVKTALTGIPPEGSHNAVVGALGNSNAGTSSGDKKHETFGNEQRLKDLEEKLDRDKYKGTRIIGVVGMPGIGKTTLLKELYKTWQGKFSRHALIDQIRVKSKHLELDRLPQMLLGELSKLNHPHVDNLKDPYSQLHERKVLVVLDDVSKREQIDALREILDWIKEGKEGSRVVIATSDMSLTNGLVDDTYMVQNLNHRDSLQLFHYHAFIDDQANPQKKDFMKLSEGFVHYARGHPLALKVLGGELNKKSMDHWNSKMKKLAQSPSPNIVSVFQVSYDELTTAQKDAFLDIACFRSQDKDYVESLLASSDLGSAEAMSAVKSLTDKFLINTCDGRVEMHDLLYKFSREVDLKASNQDGSRQRRLWLHQHIIKGGIINVLQNKMKAANVRGIFLDLSEVEDETSLDRDHFINMGNLRYLKFYNSHCPQECKTNNKINIPDKLKLPLKEVRCLHWLKFPLETLPNDFNPINLVDLKLPYSEMEQLWEGDKDTPCLRWVDLNHSSKLCSLSGLSKAEKLQRLNLEGCTTLKAFPHDMKKMKMLAFLNLKGCTSLESLPEMNLISLKTLTLSGCSTFKEFPLISDNIETLYLDGTAISQLPMNMEKLQRLVVLNMKDCKMLEEIPGRVGELKALQELILSDCLNLKIFPEIDISFLNILLLDGTAIEVMPQLPSVQYLCLSRNAKISCLPVGISQLSQLKWLDLKYCTSLTSVPEFPPNLQCLDAHGCSSLKTVSKPLARIMPTEQNHSTFIFTNCENLEQAAKEEITSYAQRKCQLLSYARKRYNGGLVSESLFSTCFPGCEVPSWFCHETVGSELEVKLLPHWHDKKLAGIALCAVVSCLDPQDQVSRLSVTCTFKVKDEDKSWVAYTCPVGSWTRHGGGKDKIELDHVFIGYTSCPHTIKCHEEGNSDECNPTEASLKFTVTGGTSENGKYKVLKCGLSLVYAKDKDKNSALETKYDMLIGKSFQETSEGVDGRVKKTKGKYVMPVEKNFQETTEGVDGRVNKKKKTRMDNGRPKKKQRSGRDDNQTRMQVELQEGNINSVIMHTVKNF
partner: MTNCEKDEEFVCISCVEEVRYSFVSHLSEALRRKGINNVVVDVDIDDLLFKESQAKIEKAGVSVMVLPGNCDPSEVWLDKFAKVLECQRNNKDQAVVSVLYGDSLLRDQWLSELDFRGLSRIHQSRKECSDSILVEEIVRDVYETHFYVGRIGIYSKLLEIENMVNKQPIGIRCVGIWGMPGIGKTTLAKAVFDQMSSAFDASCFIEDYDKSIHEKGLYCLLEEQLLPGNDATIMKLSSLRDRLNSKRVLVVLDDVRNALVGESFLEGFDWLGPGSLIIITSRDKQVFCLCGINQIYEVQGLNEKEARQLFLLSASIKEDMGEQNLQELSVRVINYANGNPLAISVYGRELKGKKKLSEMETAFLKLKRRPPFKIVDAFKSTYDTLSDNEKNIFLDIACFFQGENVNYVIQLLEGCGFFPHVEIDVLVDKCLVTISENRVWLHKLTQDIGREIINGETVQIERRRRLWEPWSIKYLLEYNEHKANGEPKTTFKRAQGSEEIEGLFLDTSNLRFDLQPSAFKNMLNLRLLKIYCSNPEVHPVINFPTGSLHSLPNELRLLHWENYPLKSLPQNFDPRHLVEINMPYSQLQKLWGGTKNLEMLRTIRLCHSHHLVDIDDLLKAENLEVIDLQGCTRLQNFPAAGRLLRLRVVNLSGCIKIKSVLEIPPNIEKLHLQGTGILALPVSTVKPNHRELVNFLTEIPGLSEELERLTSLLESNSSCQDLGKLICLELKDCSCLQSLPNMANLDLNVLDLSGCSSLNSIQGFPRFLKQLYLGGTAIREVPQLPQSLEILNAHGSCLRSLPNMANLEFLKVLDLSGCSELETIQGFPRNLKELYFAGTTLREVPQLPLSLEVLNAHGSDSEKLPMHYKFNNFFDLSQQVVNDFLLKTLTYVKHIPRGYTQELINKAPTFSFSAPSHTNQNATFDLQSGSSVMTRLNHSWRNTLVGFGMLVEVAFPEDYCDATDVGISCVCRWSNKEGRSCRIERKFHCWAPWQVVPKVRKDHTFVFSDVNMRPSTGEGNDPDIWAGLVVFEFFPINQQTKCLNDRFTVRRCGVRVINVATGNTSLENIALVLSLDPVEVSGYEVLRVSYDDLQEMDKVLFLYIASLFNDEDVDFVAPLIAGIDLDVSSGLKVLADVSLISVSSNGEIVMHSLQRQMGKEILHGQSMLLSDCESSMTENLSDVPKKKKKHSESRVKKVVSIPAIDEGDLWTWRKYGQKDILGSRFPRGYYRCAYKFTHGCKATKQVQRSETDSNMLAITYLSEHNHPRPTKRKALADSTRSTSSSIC
B2: Disease resistance protein RRS1 (Arabidopsis thaliana (Mouse-ear cress)), P0DKH5 (parent)
chain: B1 partner
partner: B1 chain

Variants of: B1
Details: with wrk52_arath RRS1, P0DKH5

Variant	effect of a mutation on the interaction
S33A;H34A	disrupting interaction strength
R30A	disrupting interaction strength
R30E	disrupting interaction strength
S33A	disrupting interaction strength
R29A	disrupting interaction strength

Next, values leading:

effect of a mutation on the interaction	Variant
disrupting interaction strength	K157A
disrupting interaction strength	E160A

Variants of: B1
Details: with wrk52_arath RRS1, P0DKH5
Remark: another data set of the same source

effect of a mutation on the interaction	Variant
disrupting interaction strength	H34A

Variants of: B2
Details: with rps4_arath RPS4, Q9XGM3

Variant	effect of a mutation on the interaction
Y101A	disrupting interaction strength
S25A	disrupting interaction strength
S25A;H26A	disrupting interaction strength
R20A	disrupting interaction strength

The remaining lines, values ahead:

effect of a mutation on the interaction	Variant
disrupting interaction strength	E128A
disrupting interaction strength	D131A
disrupting interaction strength	D103A
disrupting interaction strength	D103R

Variants of: B2
Details: with rps4_arath RPS4, Q9XGM3
Remark: another data set of the same source

effect of a mutation on the interaction	Variant
disrupting interaction strength	H26A

— IntAct's records for PubMed 24744375
